Results published in US12269859B2, “Synthetic immune receptors and methods of use thereof” (Angeles Therapeutics, Inc., priority 2016, dated 2025).

Tested on: target antigen-expressing cell line
Test: Jurkat NFAT-GFP assay, coculture with target cell lines expressing the respective target antigen (summary Table 10A)
Assay type: cell-based, human
Design: key: The signs +/−, +, 2+ etc. after the name of the cell lines indicate the relative degree of positivity on the Jurkat-NFAT-GFP assay as measured by the % GFP positive cells; +: relative degree of positivity on the Jurkat-NFAT-GFP assay as measured by the % GFP positive cells; 2+: relative degree of positivity on the Jurkat-NFAT-GFP assay as measured by the % GFP positive cells
Settings: relative % GFP positive cells; for NFAT-GFP ASSAY Positive Cell lines: RAJI: SIR-expressing Jurkat-NFAT-GFP cells cocultured with RAJI
In short: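 Coculture of SIR-bearing Jurkat NFAT-GFP reporters with target cells, ~1:2 E:T, ~4–18 h. FACS quantified % GFP+ cells, ranked semi-quantitatively against parental Jurkat-NFAT-GFP.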

Molecule | NFAT-GFP ASSAY Positive Cell lines: RAJI | NFAT-GFP ASSAY Positive Cell lines: NALM6 (SIR-expressing Jurkat-NFAT-GFP cells cocultured with NALM6)
030817-X05 (protein) MALPVTALLLPLALLLHAARPDIQMTQSPSSLSASVGDRVTITCRASSSVSYMHWYQQKPGKAPKPLIYAPSNLASGVPSRFSGSGSGTDFTLTISSLQPEDFATYYCQQWSFNPPTFGQGTKVEIKRLEDLKNVFPPEVAVFEPSKAEIAHTQKATLVCLATGFYPDHVELSWWVNGKEVHSGVCTDPQPLKEQPALNDSRYCLSSRLRVSATFWQNPRNHFRCQVQFYGLSENDEWTQDRAKPVTQIVSAEAWGRADCGITSASYHQGVLSATILYEILLGKATLYAVLVSALVLMAMVKRKDSRGRAKRSGSGATNFSLLKQAGDVEENPGPTSMDWIWRILFLVGAATGAHSFEEVQLVESGGGLVQPGGSLRLSCAASGYTFTSYNMHWVRQAPGKGLEWVGAIYPGNGDTSYNQKFKGRFTISVDKSKNTLYLQMNSLRAEDTAVYYCARVVYYSNSYWYFDVWGQGTLVTVSSTRIQNPDPAVYQLRDSKSSDKSVCLFTDFDSQTNVSQSKDSDVYITDKCVLDMRSMDFKSNSAVAWSNKSDFACANAFNNSIIPEDTFFPSSDVPCDVKLVEKSFETDTNLNFQNLSVIGFRILLLKVAGFNLLMTLRLWSSRAKRSGSGVKQTLNFDLLKLAGDVESNPGPSRGHMTEYKPTVRLATRDDVPRAVRTLAAAFADYPATRHTVDPDRHIERVTELQELFLTRVGLDIGKVWVADDGAAVAVWTTPESVEAGAVFAEIGPRMAELSGSRLAAQQQMEGLLAPHRPKEPAWFLATVGVSPDHQGKGLGSAVVLPGVEAAERAGVPAFLETSAPRNLPFYERLGFTVTADVEVPEGPRTWCMTRKPGA | RAJI (+/−) | –
030817-W07 (protein) MALPVTALLLPLALLLHAARPSTVMTQSPDSLAVSLGERATINCKSSQSNSNDVAWYQQKPGQSPKVLIYFASNRYSGVPDRFSGSGYGTDFTLTISSLQAEDVAVYFCQQDYSSPLTFGAGTKLELKRADALEDLKNVFPPEVAVFEPSKAEIAHTQKATLVCLATGFYPDHVELSWWVNGKEVHSGVCTDPQPLKEQPALNDSRYCLSSRLRVSATFWQNPRNHFRCQVQFYGLSENDEWTQDRAKPVTQIVSAEAWGRADCGITSASYHQGVLSATILYEILLGKATLYAVLVSALVLMAMVKRKDSRGRAKRSGSGATNFSLLKQAGDVEENPGPTSMDWIWRILFLVGAATGAHSFEQIQLVQSGSELKKPGASVKVSCKASGYTFTNFGVNWVRQAPGKGLEWMGWINTYTGEPSYAQGFTGRFVFSLDASVSTAYLQISSLKAEDTATYFCTRRTNYYGTSYYYAMDYWGQGTTVTVSSAKTTTRIQNPDPAVYQLRDSKSSDKSVCLFTDFDSQTNVSQSKDSDVYITDKCVLDMRSMDFKSNSAVAWSNKSDFACANAFNNSIIPEDTFFPSSDVPCDVKLVEKSFETDTNLNFQNLSVIGFRILLLKVAGFNLLMTLRLWSSRAKRSGSGVKQTLNFDLLKLAGDVESNPGPSRGHMTEYKPTVRLATRDDVPRAVRTLAAAFADYPATRHTVDPDRHIERVTELQELFLTRVGLDIGKVWVADDGAAVAVWTTPESVEAGAVFAEIGPRMAELSGSRLAAQQQMEGLLAPHRPKEPAWFLATVGVSPDHQGKGLGSAVVLPGVEAAERAGVPAFLETSAPRNLPFYERLGFTVTADVEVPEGPRTWCMTRKPGA | RAJI (+/−) | –
012417-K04 (protein) MALPVTALLLPLALLLHAARPLEGKPIPNPLLGLDSTGSGEDLKNVFPPEVAVFEPSKAEIAHTQKATLVCLATGFYPDHVELSWWVNGKEVHSGVCTDPQPLKEQPALNDSRYCLSSRLRVSATFWQNPRNHFRCQVQFYGLSENDEWTQDRAKPVTQIVSAEAWGRADCGITSASYHQGVLSATILYEILLGKATLYAVLVSALVLMAMVKRKDSRGRAKRSGSGATNFSLLKQAGDVEENPGPTSMALPVTALLLPLALLLHAARPQIVLSQSPAILSASPGEKVTMTCRASSSVSYMHWYQQKPGSSPKPWIYATSNLASGVPARFSGSGSGTSYSFTISRVEAEDAATYYCQQWTFNPPTFGGGTRLEIKRTVAAGGGGSGGGGSGGGGSQAYLQQSGAELVRPGASVKMSCKASGYTFTSYNMHWVKQTPRQGLEWIGGIYPGNGDTSYNQKFKGKATLTVGKSSSTAYMQLSSLTSEDSAVYFCARYDYNYAMDYWGQGTSVTVSSASTREQKLISEEDGSGIQNPDPAVYQLRDSKSSDKSVCLFTDFDSQTNVSQSKDSDVYITDKCVLDMRSMDFKSNSAVAWSNKSDFACANAFNNSIIPEDTFFPSSDVPCDVKLVEKSFETDTNLNFQNLSVIGFRILLLKVAGFNLLMTLRLWSSRAKRSGSGVKQTLNFDLLKLAGDVESNPGPSRGHMTEYKPTVRLATRDDVPRAVRTLAAAFADYPATRHTVDPDRHIERVTELQELFLTRVGLDIGKVWVADDGAAVAVWTTPESVEAGAVFAEIGPRMAELSGSRLAAQQQMEGLLAPHRPKEPAWFLATVGVSPDHQGKGLGSAVVLPGVEAAERAGVPAFLETSAPRNLPFYERLGFTVTADVEVPEGPRTWCMTRKPGA | RAJI (+) | –
022817-T04 (protein) MALPVTALLLPLALLLHAARPEIVLTQSPATLSLSPGERATLSCRASQSVSSYLAWYQQKPGQAPRLLIYDASNRATGIPARFSGSGSGTDFTLTISSLEPEDFAVYYCQQRSNWPITFGQGTRLEIKLEGKPIPNPLLGLDSTGSGEDLKNVFPPEVAVFEPSKAEIAHTQKATLVCLATGFYPDHVELSWWVNGKEVHSGVCTDPQPLKEQPALNDSRYCLSSRLRVSATFWQNPRNHFRCQVQFYGLSENDEWTQDRAKPVTQIVSAEAWGRADCGITSASYHQGVLSATILYEILLGKATLYAVLVSALVLMAMVKRKDSRGRAKRSGSGATNFSLLKQAGDVEENPGPTSMDWIWRILFLVGAATGAHSFEEVQLVESGGGLVQPDRSLRLSCAASGFTFHDYAMHWVRQAPGKGLEWVSTISWNSGTIGYADSVKGRFTISRDNAKNSLYLQMNSLRAEDTALYYCAKDIQYGNYYYGMDVWGQGTTVTVSSTREQKLISEEDGSGIQNPDPAVYQLRDSKSSDKSVCLFTDFDSQTNVSQSKDSDVYITDKCVLDMRSMDFKSNSAVAWSNKSDFACANAFNNSIIPEDTFFPSSDVPCDVKLVEKSFETDTNLNFQNLSVIGFRILLLKVAGFNLLMTLRLWSSRAKRSGSGVKQTLNFDLLKLAGDVESNPGPSRGHMTEYKPTVRLATRDDVPRAVRTLAAAFADYPATRHTVDPDRHIERVTELQELFLTRVGLDIGKVWVADDGAAVAVWTTPESVEAGAVFAEIGPRMAELSGSRLAAQQQMEGLLAPHRPKEPAWFLATVGVSPDHQGKGLGSAVVLPGVEAAERAGVPAFLETSAPRNLPFYERLGFTVTADVEVPEGPRTWCMTRKPGA | – | (2+)
030817-F07 (protein) MALPVTALLLPLALLLHAARPEIVLTQSPGTLSLSPGERATLSCRASSSVPYIHWYQQKPGQAPRLLIYATSALASGIPDRFSGSGSGTDFTLTISRLEPEDFAVYYCQQWLSNPPTFGQGTKLELKRLEIQNPDPAVYQLRDSKSSDKSVCLFTDFDSQTNVSQSKDSDVYITDKCVLDMRSMDFKSNSAVAWSNKSDFACANAFNNSIIPEDTFFPSSDVPCDVKLVEKSFETDTNLNFQNLSVIGFRILLLKVAGFNLLMTLRLWSSRAKRSGSGVKQTLNFDLLKLAGDVESNPGPTSMDWIWRILFLVGAATGAHSFEEVQLVQSGAEVKKPGESLKLSCKGSGRTFTSYNMHWVRQMPGKGLEWMGAIYPLTGDTSYNQKSKLQVTISADKSISTAYLQWSSLKASDTAMYYCARSTYVGGDWQFDVWGKGTTVTVSSTREDLKNVFPPEVAVFEPSKAEIAHTQKATLVCLATGFYPDHVELSWWVNGKEVHSGVCTDPQPLKEQPALNDSRYCLSSRLRVSATFWQNPRNHFRCQVQFYGLSENDEWTQDRAKPVTQIVSAEAWGRADCGITSASYHQGVLSATILYEILLGKATLYAVLVSALVLMAMVKRKDSRGRAKRSGSGATNFSLLKQAGDVEENPGPSRGHMTEYKPTVRLATRDDVPRAVRTLAAAFADYPATRHTVDPDRHIERVTELQELFLTRVGLDIGKVWVADDGAAVAVWTTPESVEAGAVFAEIGPRMAELSGSRLAAQQQMEGLLAPHRPKEPAWFLATVGVSPDHQGKGLGSAVVLPGVEAAERAGVPAFLETSAPRNLPFYERLGFTVTADVEVPEGPRTWCMTRKPGA | RAJI (+/−) | –
012517-Q12 (protein) MALPVTALLLPLALLLHAARPLEGKPIPNPLLGLDSTGSGEDLKNVFPPEVAVFEPSKAEIAHTQKATLVCLATGFYPDHVELSWWVNGKEVHSGVCTDPQPLKEQPALNDSRYCLSSRLRVSATFWQNPRNHFRCQVQFYGLSENDEWTQDRAKPVTQIVSAEAWGRADCGITSASYHQGVLSATILYEILLGKATLYAVLVSALVLMAMVKRKDSRGRAKRSGSGATNFSLLKQAGDVEENPGPTSMALPVTALLLPLALLLHAARPEIVLTQSPGTLSLSPGERATLSCRASSSVPYIHWYQQKPGQAPRLLIYATSALASGIPDRFSGSGSGTDFTLTISRLEPEDFAVYYCQQWLSNPPTFGQGTKLELKRGGGGSGGGGSGGGGSEVQLVQSGAEVKKPGESLKLSCKGSGRTFTSYNMHWVRQMPGKGLEWMGAIYPLTGDTSYNQKSKLQVTISADKSISTAYLQWSSLKASDTAMYYCARSTYVGGDWQFDVWGKGTTVTVSSTREQKLISEEDGSGIQNPDPAVYQLRDSKSSDKSVCLFTDFDSQTNVSQSKDSDVYITDKCVLDMRSMDFKSNSAVAWSNKSDFACANAFNNSIIPEDTFFPSSDVPCDVKLVEKSFETDTNLNFQNLSVIGFRILLLKVAGFNLLMTLRLWSSRAKRSGSGVKQTLNFDLLKLAGDVESNPGPSRGHMTEYKPTVRLATRDDVPRAVRTLAAAFADYPATRHTVDPDRHIERVTELQELFLTRVGLDIGKVWVADDGAAVAVWTTPESVEAGAVFAEIGPRMAELSGSRLAAQQQMEGLLAPHRPKEPAWFLATVGVSPDHQGKGLGSAVVLPGVEAAERAGVPAFLETSAPRNLPFYERLGFTVTADVEVPEGPRTWCMTRKPGA | RAJI (+) | –
